Data on two molecules can be found in publication PMC4318453.

The target in one assay is heat shock protein 40 (UniProt P25685). In words: FRET or BRET; positive control of the FRET experiment, results not shown.
The target in assay [1] is Proliferating cell nuclear antigen, purified recombinant (UniProt P12004).

Chain of UniProt P25685 (P25685 whole entry): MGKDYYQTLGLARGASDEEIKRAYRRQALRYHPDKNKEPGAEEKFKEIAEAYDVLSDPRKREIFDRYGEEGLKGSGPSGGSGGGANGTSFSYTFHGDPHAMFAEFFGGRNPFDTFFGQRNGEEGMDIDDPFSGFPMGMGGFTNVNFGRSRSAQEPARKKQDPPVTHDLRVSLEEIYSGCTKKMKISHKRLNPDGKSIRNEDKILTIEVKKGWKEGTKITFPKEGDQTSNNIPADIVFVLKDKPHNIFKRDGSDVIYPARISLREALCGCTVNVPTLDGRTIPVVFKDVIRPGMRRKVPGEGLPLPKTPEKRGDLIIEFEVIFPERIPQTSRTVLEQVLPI

In turn, “mitogen-activated protein kinase MK5 (from UniProt Q8IW41 1-473) (enzyme)” displayed an FRET efficiency with heat shock protein 40 of 15%.

B1: BKPyV agnoprotein, purified full-length (natural protein)
chain: MVLRQLSRQASVKVGKTWTGTKKRAQRIFIFILELLLEFCRGEDSVDGKNKSTTALPAVKDSVKDS
Take B1: the PCNA:pol δ-mediated in vitro DNA synthesis (polydA/oligodT, [3H]dTTP incorporation) with increasing amounts of agnoprotein in assay [1] was 50%.
